Source: PMC4116148 (Biochemistry, 2014)
Where two headings read alike, the source gives them in different places. Non-standard residues stand in square brackets, D forms with d. fluorescein = fluorescein: fluorescein label on the Lys side chain; code γ = not defined here

B1: EHD1 EH domain EH (protein)
chain: VGKDKPTYDEIFYTLSPVNGKITGANAKKEMVKSKLPNTVLGKIWKLADVDKDGLLDDEEFALANHLIKVKLEGHELPADLPPHLVPPSKRRHE

Legend:
dynamin GTPase activity = settings: biochemical assay of dynamin GTPase activity; cited from earlier work
cNPF1 [1] = target: T1, cNPF1 (head-to-tail cyclic); test: ITC
T1 chain: YNPFEEGG

cAPA = target: T2, cAPA (head-to-tail cyclic); test: fluorescence polarization competition
T2 chain: YAPAEEGG

cNPF1 [2] = target: T1, cNPF1; test: fluorescence polarization competition
cNPF1B = target: T3, cNPF1B (SMILES CC(=O)NCCCC[C@@H]1NC(=O)CNC(=O)[C@H](CCC(=O)O)NC(=O)[C@H](CCC(=O)O)NC(=O)[C@H](Cc2ccccc2)NC(=O)[C@@H]2CCCN2C(=O)[C@H](CC(N)=O)NC(=O)[C@H](Cc2ccc(O)cc2)NC1=O); test: fluorescence polarization competition
T3 chain: cyclo(YNPFEEGK(Ac))

cNPF3Flu [3] = target: T4, cNPF3Flu; test: fluorescence polarization
T4 chain: cyclo(YNPFEEK(fluorescein))

cNPF5Flu [4] = target: T5, cNPF5Flu; test: fluorescence polarization
T5 chain: cyclo(YNPFEAGK(fluorescein))

cNPF4Flu [5] = target: T6, cNPF4Flu; test: fluorescence polarization
T6 chain: cyclo(YNPFAEGK(fluorescein))

cNPF6Flu [6] = target: T7, cNPF6Flu; test: fluorescence polarization
T7 chain: cyclo(YNPFEQGK(fluorescein))

cAPAFlu = target: T8, cAPAFlu; test: fluorescence polarization
T8 chain: cyclo(YAPAEEGK(fluorescein))

cNPF2Flu [7] = target: T9, cNPF2Flu (reading uncertain); test: fluorescence polarization
T9 chain: cyclo(YNPFEE[code γ]K(fluorescein))

cNPF1Flu [8] = target: T10, cNPF1Flu; test: fluorescence polarization
T10 chain: cyclo(YNPFEEGK(fluorescein))

cNPF3Flu [9] = target: T4, cNPF3Flu; test: fluorescence polarization
cNPF5Flu [10] = target: T5, cNPF5Flu; test: fluorescence polarization
cNPF4Flu [11] = target: T6, cNPF4Flu; test: fluorescence polarization
cNPF6Flu [12] = target: T7, cNPF6Flu; test: fluorescence polarization
cNPF2Flu [13] = target: T9, cNPF2Flu; test: fluorescence polarization
cNPF1Flu [14] = target: T10, cNPF1Flu; test: fluorescence polarization

| Molecule | IC50 (dynamin GTPase activity) [µM] | Kd (cNPF1 [1]) [µM] | IC50 (cAPA) [µM] | IC50 (cNPF1 [2]) [µM] | IC50 (cNPF1B) [µM] | Kd (cNPF3Flu [3]) [µM] | Kd (cNPF5Flu [4]) [µM] | Kd (cNPF4Flu [5]) [µM] | Kd (cNPF6Flu [6]) [µM] | Kd (cAPAFlu) [µM] | Kd (cNPF2Flu [7]) [µM] | Kd (cNPF1Flu [8]) [µM] | Kd (cNPF3Flu [9]) [µM] | Kd (cNPF5Flu [10]) [µM] | Kd (cNPF4Flu [11]) [µM] | Kd (cNPF6Flu [12]) [µM] | Kd (cNPF2Flu [13]) [µM] | Kd (cNPF1Flu [14]) [µM] |
| --- | --- | --- | --- | --- | --- | --- | --- | --- | --- | --- | --- | --- | --- | --- | --- | --- | --- | --- |
| O=C(N/N=C/c1ccc(O)c(O)c1)c1cc2ccccc2cc1O [dynasore] | ~15 | – | – | – | – | – | – | – | – | – | – | – | – | – | – | – | – | – |
| B1 | – | 9.9 | > 450 | 49.2 | 100 | 11.3 | 8.7 | 17.4 | 12.8 | > 67 | 4.5 | 3.3 | 57.8 | 28.3 | 46.7 | 34 | 20.5 | 16.8 |
